Measured values: patent US7132278

Target: T1, AMARA peptide, synthetic substrate NH2-AMARAASAAALARRR-CO2H
T1 chain: AMARAASAAALARRR

B1: human PASK enzyme, wildtype, pre-phosphorylated in the presence of ATP (protein)
chain: MEDGGLTAFEEDQRCLSQSLPLPVSAEGPAAQTTAEPSRSFSSAHRHLSRRNGLSRLCQSRTALSEDRWSSYCLSSLAAQNICTSKLHCPAAPEHTDPSEPRGSVSCCSLLRGLSSGWSSPLLPAPVCNPNKAIFTVDAKTTEILVANDKACGLLGYSSQDLIGQKLTQFFLRSDSDVVEALSEEHMEADGHAAVVFGTVVDIISRSGEKIPVSVWMKRMRQERRLCCVVVLEPVERVSTWVAFQSDGTVTSCDSLFAHLHGYVSGEDVAGQHITDLIPSVQLPPSGQHIPKNLKIQRSVGRARDGTTFPLSLKLKSQPSSEEATTGEAAPVSGYRASVWVFCTISGLITLLPDGTIHGINHSFALTLFGYGKTELLGKNITFLIPGFYSYMDLAYNSSLQLPDLASCLDVGNESGCGERTLDPWQGQDPAEGGQDPRINVVLAGGHVVPRDEIRKLMESQDIFTGTQTELIAGGQLLSCLSPQPAPGVDNVPEGSLPVHGEQALPKDQQITALGREEPVAIESPGQDLLGESRSEPVDVKPFASCEDSEAPVPAEDGGSDAGMCGLCQKAQLERMGVSGPSGSDLWAGAAVAKPQAKGQLAGGSLLMHCPCYGSEWGLWWRSQDLAPSPSGMAGLSFGTPTLDEPWLGVENDREELQTCLIKEQLSQLSLAGALDVPHAELVPTECQAVTAPVSSCDLGGRDLCGGCTGSSSACYALATDLPGGLEAVEAQEVDVNSFSWNLKELFFSDQTDQTSSNCSCATSELRETPSSLAVGSDPDVGSLQEQGSCVLDDRELLLLTGTCVDLGQGRRFRESCVGHDPTEPLEVCLVSSEHYAASDRESPGHVPSTLDAGPEDTCPSAEEPRLNVQVTSTPVIVMRGAAGLQREIQEGAYSGSCHHRDGLRLSIQFEVRRVELQGPTPLFCCWLVKDLLHSQRDSAARTRLFLASLPGSTHSTAAELTGPSLVEVLRARPWFEEPPKAVELEGLAACEGEYSQKYSTMSPLGSGAFGFVWTAVDKEKNKEVVVKFIKKEKVLEDCWIEDPKLGKVTLEIAILSRVEHANIIKVLDIFENQGFFQLVMEKHGSGLDLFAFIDRHPRLDEPLASYIFRQLVSAVGYLRLKDIIHRDIKDENIVIAEDFTIKLIDFGSAAYLERGKLFYTFCGTIEYCAPEVLMGNPYRGPELEMWSLGVTLYTLVFEENPFCELEETVEAAIHPPYLVSKELMSLVSGLLQPVPERRTTLEKLVTDPWVTQPVNLADYTWEEVCRVNKPESGVLSAASLEMGNRSLSDVAQAQELCGGPVPGEAPNGQGCLHPGDPRLLTS
Km (mM), pre-phosphorylated: 0.2 mM | fold lower Km for substrate than the unmodified enzyme: 6.5-fold lower Km for substrate than the unmodified enzyme

B2: human PASK enzyme, wildtype, untreated (unmodified, as purified from baculovirus-infected Sf-9 cells) (protein)
chain: MEDGGLTAFEEDQRCLSQSLPLPVSAEGPAAQTTAEPSRSFSSAHRHLSRRNGLSRLCQSRTALSEDRWSSYCLSSLAAQNICTSKLHCPAAPEHTDPSEPRGSVSCCSLLRGLSSGWSSPLLPAPVCNPNKAIFTVDAKTTEILVANDKACGLLGYSSQDLIGQKLTQFFLRSDSDVVEALSEEHMEADGHAAVVFGTVVDIISRSGEKIPVSVWMKRMRQERRLCCVVVLEPVERVSTWVAFQSDGTVTSCDSLFAHLHGYVSGEDVAGQHITDLIPSVQLPPSGQHIPKNLKIQRSVGRARDGTTFPLSLKLKSQPSSEEATTGEAAPVSGYRASVWVFCTISGLITLLPDGTIHGINHSFALTLFGYGKTELLGKNITFLIPGFYSYMDLAYNSSLQLPDLASCLDVGNESGCGERTLDPWQGQDPAEGGQDPRINVVLAGGHVVPRDEIRKLMESQDIFTGTQTELIAGGQLLSCLSPQPAPGVDNVPEGSLPVHGEQALPKDQQITALGREEPVAIESPGQDLLGESRSEPVDVKPFASCEDSEAPVPAEDGGSDAGMCGLCQKAQLERMGVSGPSGSDLWAGAAVAKPQAKGQLAGGSLLMHCPCYGSEWGLWWRSQDLAPSPSGMAGLSFGTPTLDEPWLGVENDREELQTCLIKEQLSQLSLAGALDVPHAELVPTECQAVTAPVSSCDLGGRDLCGGCTGSSSACYALATDLPGGLEAVEAQEVDVNSFSWNLKELFFSDQTDQTSSNCSCATSELRETPSSLAVGSDPDVGSLQEQGSCVLDDRELLLLTGTCVDLGQGRRFRESCVGHDPTEPLEVCLVSSEHYAASDRESPGHVPSTLDAGPEDTCPSAEEPRLNVQVTSTPVIVMRGAAGLQREIQEGAYSGSCHHRDGLRLSIQFEVRRVELQGPTPLFCCWLVKDLLHSQRDSAARTRLFLASLPGSTHSTAAELTGPSLVEVLRARPWFEEPPKAVELEGLAACEGEYSQKYSTMSPLGSGAFGFVWTAVDKEKNKEVVVKFIKKEKVLEDCWIEDPKLGKVTLEIAILSRVEHANIIKVLDIFENQGFFQLVMEKHGSGLDLFAFIDRHPRLDEPLASYIFRQLVSAVGYLRLKDIIHRDIKDENIVIAEDFTIKLIDFGSAAYLERGKLFYTFCGTIEYCAPEVLMGNPYRGPELEMWSLGVTLYTLVFEENPFCELEETVEAAIHPPYLVSKELMSLVSGLLQPVPERRTTLEKLVTDPWVTQPVNLADYTWEEVCRVNKPESGVLSAASLEMGNRSLSDVAQAQELCGGPVPGEAPNGQGCLHPGDPRLLTS
Km (mM), untreated: 1.3 mM

B3: human PASK S1149A, pre-phosphorylated (protein)
chain: MEDGGLTAFEEDQRCLSQSLPLPVSAEGPAAQTTAEPSRSFSSAHRHLSRRNGLSRLCQSRTALSEDRWSSYCLSSLAAQNICTSKLHCPAAPEHTDPSEPRGSVSCCSLLRGLSSGWSSPLLPAPVCNPNKAIFTVDAKTTEILVANDKACGLLGYSSQDLIGQKLTQFFLRSDSDVVEALSEEHMEADGHAAVVFGTVVDIISRSGEKIPVSVWMKRMRQERRLCCVVVLEPVERVSTWVAFQSDGTVTSCDSLFAHLHGYVSGEDVAGQHITDLIPSVQLPPSGQHIPKNLKIQRSVGRARDGTTFPLSLKLKSQPSSEEATTGEAAPVSGYRASVWVFCTISGLITLLPDGTIHGINHSFALTLFGYGKTELLGKNITFLIPGFYSYMDLAYNSSLQLPDLASCLDVGNESGCGERTLDPWQGQDPAEGGQDPRINVVLAGGHVVPRDEIRKLMESQDIFTGTQTELIAGGQLLSCLSPQPAPGVDNVPEGSLPVHGEQALPKDQQITALGREEPVAIESPGQDLLGESRSEPVDVKPFASCEDSEAPVPAEDGGSDAGMCGLCQKAQLERMGVSGPSGSDLWAGAAVAKPQAKGQLAGGSLLMHCPCYGSEWGLWWRSQDLAPSPSGMAGLSFGTPTLDEPWLGVENDREELQTCLIKEQLSQLSLAGALDVPHAELVPTECQAVTAPVSSCDLGGRDLCGGCTGSSSACYALATDLPGGLEAVEAQEVDVNSFSWNLKELFFSDQTDQTSSNCSCATSELRETPSSLAVGSDPDVGSLQEQGSCVLDDRELLLLTGTCVDLGQGRRFRESCVGHDPTEPLEVCLVSSEHYAASDRESPGHVPSTLDAGPEDTCPSAEEPRLNVQVTSTPVIVMRGAAGLQREIQEGAYSGSCHHRDGLRLSIQFEVRRVELQGPTPLFCCWLVKDLLHSQRDSAARTRLFLASLPGSTHSTAAELTGPSLVEVLRARPWFEEPPKAVELEGLAACEGEYSQKYSTMSPLGSGAFGFVWTAVDKEKNKEVVVKFIKKEKVLEDCWIEDPKLGKVTLEIAILSRVEHANIIKVLDIFENQGFFQLVMEKHGSGLDLFAFIDRHPRLDEPLASYIFRQLVSAVGYLRLKDIIHRDIKDENIVIAEDFTIKLIDFGAAAYLERGKLFYTFCGTIEYCAPEVLMGNPYRGPELEMWSLGVTLYTLVFEENPFCELEETVEAAIHPPYLVSKELMSLVSGLLQPVPERRTTLEKLVTDPWVTQPVNLADYTWEEVCRVNKPESGVLSAASLEMGNRSLSDVAQAQELCGGPVPGEAPNGQGCLHPGDPRLLTS
Km (mM), pre-phosphorylated: 0.6 mM

B4: human PASK S1273,77,80A, pre-phosphorylated (protein)
chain: MEDGGLTAFEEDQRCLSQSLPLPVSAEGPAAQTTAEPSRSFSSAHRHLSRRNGLSRLCQSRTALSEDRWSSYCLSSLAAQNICTSKLHCPAAPEHTDPSEPRGSVSCCSLLRGLSSGWSSPLLPAPVCNPNKAIFTVDAKTTEILVANDKACGLLGYSSQDLIGQKLTQFFLRSDSDVVEALSEEHMEADGHAAVVFGTVVDIISRSGEKIPVSVWMKRMRQERRLCCVVVLEPVERVSTWVAFQSDGTVTSCDSLFAHLHGYVSGEDVAGQHITDLIPSVQLPPSGQHIPKNLKIQRSVGRARDGTTFPLSLKLKSQPSSEEATTGEAAPVSGYRASVWVFCTISGLITLLPDGTIHGINHSFALTLFGYGKTELLGKNITFLIPGFYSYMDLAYNSSLQLPDLASCLDVGNESGCGERTLDPWQGQDPAEGGQDPRINVVLAGGHVVPRDEIRKLMESQDIFTGTQTELIAGGQLLSCLSPQPAPGVDNVPEGSLPVHGEQALPKDQQITALGREEPVAIESPGQDLLGESRSEPVDVKPFASCEDSEAPVPAEDGGSDAGMCGLCQKAQLERMGVSGPSGSDLWAGAAVAKPQAKGQLAGGSLLMHCPCYGSEWGLWWRSQDLAPSPSGMAGLSFGTPTLDEPWLGVENDREELQTCLIKEQLSQLSLAGALDVPHAELVPTECQAVTAPVSSCDLGGRDLCGGCTGSSSACYALATDLPGGLEAVEAQEVDVNSFSWNLKELFFSDQTDQTSSNCSCATSELRETPSSLAVGSDPDVGSLQEQGSCVLDDRELLLLTGTCVDLGQGRRFRESCVGHDPTEPLEVCLVSSEHYAASDRESPGHVPSTLDAGPEDTCPSAEEPRLNVQVTSTPVIVMRGAAGLQREIQEGAYSGSCHHRDGLRLSIQFEVRRVELQGPTPLFCCWLVKDLLHSQRDSAARTRLFLASLPGSTHSTAAELTGPSLVEVLRARPWFEEPPKAVELEGLAACEGEYSQKYSTMSPLGSGAFGFVWTAVDKEKNKEVVVKFIKKEKVLEDCWIEDPKLGKVTLEIAILSRVEHANIIKVLDIFENQGFFQLVMEKHGSGLDLFAFIDRHPRLDEPLASYIFRQLVSAVGYLRLKDIIHRDIKDENIVIAEDFTIKLIDFGSAAYLERGKLFYTFCGTIEYCAPEVLMGNPYRGPELEMWSLGVTLYTLVFEENPFCELEETVEAAIHPPYLVSKELMSLVSGLLQPVPERRTTLEKLVTDPWVTQPVNLADYTWEEVCRVNKPEAGVLAAAALEMGNRSLSDVAQAQELCGGPVPGEAPNGQGCLHPGDPRLLTS
Km (mM), pre-phosphorylated: 0.3 mM
